From PMC7566517

What follows are substances tested against HER3 on HER3-overexpressing HEK293 cells (human) (UniProt P21860) (assay: flow cytometry on cells; stable HEK293 cells expressing HER3 or HER4; purified NRG-1 mutants at 1 and 10 μg/mL, 4 °C, 1 h; goat antihuman Alexa Fluor 647).
HER3 on HER3-overexpressing HEK293 cells (human), sequence (P21860 20-1342): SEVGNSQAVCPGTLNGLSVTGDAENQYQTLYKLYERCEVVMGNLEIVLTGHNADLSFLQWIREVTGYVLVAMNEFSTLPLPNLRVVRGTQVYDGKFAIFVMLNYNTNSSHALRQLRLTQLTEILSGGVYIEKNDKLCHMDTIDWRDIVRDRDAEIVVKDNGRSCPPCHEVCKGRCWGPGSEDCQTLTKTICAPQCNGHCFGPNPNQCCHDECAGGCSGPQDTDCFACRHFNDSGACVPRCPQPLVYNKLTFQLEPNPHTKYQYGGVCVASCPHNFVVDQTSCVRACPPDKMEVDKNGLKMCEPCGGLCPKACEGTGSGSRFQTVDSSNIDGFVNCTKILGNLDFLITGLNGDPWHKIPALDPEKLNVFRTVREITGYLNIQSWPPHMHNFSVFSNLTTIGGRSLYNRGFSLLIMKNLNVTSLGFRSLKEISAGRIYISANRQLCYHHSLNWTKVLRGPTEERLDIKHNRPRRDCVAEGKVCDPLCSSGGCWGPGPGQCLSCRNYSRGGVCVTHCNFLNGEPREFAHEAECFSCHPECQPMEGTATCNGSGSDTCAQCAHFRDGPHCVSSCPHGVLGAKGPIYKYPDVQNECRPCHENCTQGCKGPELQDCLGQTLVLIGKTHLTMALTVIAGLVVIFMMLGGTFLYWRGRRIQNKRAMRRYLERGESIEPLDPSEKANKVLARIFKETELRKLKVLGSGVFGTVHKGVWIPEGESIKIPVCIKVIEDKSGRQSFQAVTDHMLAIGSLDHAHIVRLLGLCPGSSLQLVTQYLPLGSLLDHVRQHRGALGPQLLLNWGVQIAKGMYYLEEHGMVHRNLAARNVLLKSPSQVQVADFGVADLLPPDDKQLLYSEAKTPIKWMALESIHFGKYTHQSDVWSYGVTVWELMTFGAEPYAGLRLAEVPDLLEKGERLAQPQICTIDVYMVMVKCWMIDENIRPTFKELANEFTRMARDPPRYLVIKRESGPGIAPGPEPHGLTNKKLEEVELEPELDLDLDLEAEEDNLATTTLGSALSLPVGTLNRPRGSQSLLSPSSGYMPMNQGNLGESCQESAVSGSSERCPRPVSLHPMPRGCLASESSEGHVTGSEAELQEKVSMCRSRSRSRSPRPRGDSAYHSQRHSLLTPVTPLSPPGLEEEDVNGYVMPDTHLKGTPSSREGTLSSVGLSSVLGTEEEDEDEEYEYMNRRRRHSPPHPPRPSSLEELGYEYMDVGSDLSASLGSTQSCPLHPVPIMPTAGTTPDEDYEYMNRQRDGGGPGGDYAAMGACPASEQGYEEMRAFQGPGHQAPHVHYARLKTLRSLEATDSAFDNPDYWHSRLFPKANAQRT

| Substance | ratio of median binding fluorescence to the parental clone |
| --- | --- |
| NRG1-MFc variant P29L (Fc fusion) | < 0.8 |
| NRG1-MFc variant T41A (Fc fusion) | < 0.8 |
| NRG1-MFc variant P29D (Fc fusion) | < 0.8 |

Second part, the substance after the results:

| ratio of median binding fluorescence to the parental clone | Substance |
| --- | --- |
| < 0.8 | NRG1-MFc variant K24G (Fc fusion) |
| < 0.8 | NRG1-MFc variant H2T (Fc fusion) |
| < 0.8 | NRG1-MFc variant E8L (Fc fusion) |
| < 0.8 | NRG1-MFc variant H2E (Fc fusion) |
